# Test results from patent US20220323445A1, “REDUCING IMMUNOGENICITY TO PEGLOTICASE” (Horizon Therapeutics Ireland DAC, priority 2020, published 2022).
# Assays:
# [1] = Stability of pegloticase diluted in infusion bags; format: physicochemical; conditions: at 2° C. to 8° C. and at room temperature (20° C. to 25° C.); 0.45% or 0.9% Sodium Chloride
# Experimental: Preparation—Vials were visually inspected for particulate matter and discoloration before administration, whenever solution and container permit. Vials were not used if either was present. Using appropriate aseptic technique, 1 mL of pegloticase was withdrawn from the vial into a sterile syringe. Any unused portion of product remaining in the vial was discarded. Syringe contents were injected into a single 250 mL bag of 0.45% or 0.9% Sodium Chloride Injection, United States Pharmacopeia (USP) for IV infusion and was not mixed or diluted with other drugs. The infusion bag containing the dilute pegloticase solution was inverted several times, but not shaken, to ensure thorough mixing.
# Pegloticase diluted in infusion bags was stable for 4 hours at 2° C. to 8° C. (36° F. to 46° F.) and at room temperature (20° C. to 25° C., 68° F. to 77° F.); however, the diluted solution was stored under refrigeration, not frozen, protected from light, and used within 4 hours of dilution. Before administration, the diluted solution of pegloticase was allowed to reach room temperature. Pegloticase in a vial or IV infusion fluid was never subjected to artificial heating.
# [2] = tested on: patients with uncontrolled gout; experiment: Tender joint count (68-point) and swollen joint count (66-point), open-label study; format: in vivo, human; conditions: mITT
# Experimental: Tender and Swollen Joint Counts: Tender and swollen (excludes hip) joint counts were recorded at the Week −4 or week −6 (prior to the first dose of MTX) Visit during the MTX Run-in Period for the open-label and randomized studies, respectively; prior to pegloticase infusion at the Day 1 and Weeks 14, 24 and 36 Visits, or at the Day 1 and weeks 6, 14, 20, 24, 30, 36, and 44 visits during the Pegloticase+IMM Period for the open-label and randomized studies, respectively; and at the End of Pegloticase Infusions Visit (if applicable) and the Week 52/End of Study/Early Termination Visit and the Post Treatment 3 and 6 month Follow-up visits. Tender and swollen joint counts were assessed by physical examination.
# [3] = tested on: plasma urate; conditions: doses of 4 to 12 mg; within 24 to 72 hours; from 11.1±0.6 mg/dL; cited from earlier work
# [4] = Day 1 vs Methotrexate Baseline, n=14
# [5] = Early Termination Visit vs Methotrexate Baseline, n=3
# [6] = Early Termination Visit vs Pegloticase Baseline, n=3
# [7] = End of Pegloticase Infusions Visit vs Methotrexate Baseline, n=2
# [8] = End of Pegloticase Infusions Visit vs Pegloticase Baseline, n=2
# [9] = End of Pegloticase Infusions Visit, n=2
# [10] = Week 14 vs Methotrexate Baseline, n=14
# [11] = Week 14 vs Pegloticase Baseline, n=14
# [12] = Week 24 vs Methotrexate Baseline, n=11
# [13] = Week 24 vs Pegloticase Baseline, n=11
# [14] = Week 36 vs Methotrexate Baseline, n=9
# [15] = Week 36 vs Pegloticase Baseline, n=9
# [16] = Week 52/ET vs Methotrexate Baseline, n=3
# [17] = Week 52/ET vs Pegloticase Baseline, n=3
molecule,measurement,setting,value
"pegloticase (protein, monomethoxy PEG conjugated; Krystexxa Sequence, covalent conjugate of uricase produced by a genetically modified strain of Escherichia coli and monomethoxypoly (ethylene glycol)) TYKKNDEVEFVRTGYGKDMIKVLHIQRDGKYHSIKEVATTVQLTLSSKKDYLHGDNSDVIPTDTIKNTVNVLAKFKGIKSIETFAVTICEHFLSSFKHVIRAQVYVEEVPWKRFEKNGVKHVHAFIYTPTGTHFCEVEQIRNGPPVIHSGIKDLKVLKTTQSGFEGFIKDQFTTLPEVKDRCFATQVYCKWRYHQGRDVDFEATWDTVRSIVLQKFAGPYDKGEYSPSVQKTLYDIQVLTLGQVPEIEDMEISLPNIHYLNIDMSKMGLINKEEVLLPLDNPYGKITGTVKRKLSSRL",stability of pegloticase diluted in infusion bags,[1],4 h
same,"Swollen Joint Count, Observed, Mean (SD)","[2]; Day 1, n=14",5.3 (6.94)
same,"Swollen Joint Count, Observed, Median","[2]; Day 1, n=14",3.5
same,"Tender Joint Count, Observed, Mean (SD)","[2]; Day 1, n=14",9.6 (11.03)
same,"Tender Joint Count, Observed, Median","[2]; Day 1, n=14",7.0
same,"Swollen Joint Count, Change from Baseline, Mean (SD)",[2]; [4],−0.7 (5.21)
same,"Swollen Joint Count, Change from Baseline, Median",[2]; [4],0.5
same,"Tender Joint Count, Change from Baseline, Mean (SD)",[2]; [4],−1.9 (9.75)
same,"Tender Joint Count, Change from Baseline, Median",[2]; [4],0.0
same,"Swollen Joint Count, Change from Baseline, Mean (SD)",[2]; [5],−1.0 (1.73)
same,"Swollen Joint Count, Change from Baseline, Median",[2]; [5],0.0
same,"Tender Joint Count, Change from Baseline, Mean (SD)",[2]; [5],0.7 (5.13)
same,"Tender Joint Count, Change from Baseline, Median",[2]; [5],2.0
same,"Swollen Joint Count, Change from Baseline, Mean (SD)",[2]; [6],−3.3 (3.06)
same,"Swollen Joint Count, Change from Baseline, Median",[2]; [6],−4.0
same,"Tender Joint Count, Change from Baseline, Mean (SD)",[2]; [6],−2.7 (4.16)
same,"Tender Joint Count, Change from Baseline, Median",[2]; [6],−4.0
same,"Swollen Joint Count, Observed, Mean (SD)","[2]; Early Termination Visit, n=3",0.7 (0.58)
same,"Swollen Joint Count, Observed, Median","[2]; Early Termination Visit, n=3",1.0
same,"Tender Joint Count, Observed, Mean (SD)","[2]; Early Termination Visit, n=3",7.7 (8.96)
same,"Tender Joint Count, Observed, Median","[2]; Early Termination Visit, n=3",3.0
same,"Swollen Joint Count, Change from Baseline, Mean (SD)",[2]; [7],−7.0 (4.24)
same,"Swollen Joint Count, Change from Baseline, Median",[2]; [7],−7.0
same,"Tender Joint Count, Change from Baseline, Mean (SD)",[2]; [7],−12.0 (7.07)
same,"Tender Joint Count, Change from Baseline, Median",[2]; [7],−12.0
same,"Swollen Joint Count, Change from Baseline, Mean (SD)",[2]; [8],−2.0 (2.83)
same,"Swollen Joint Count, Change from Baseline, Median",[2]; [8],−2.0
same,"Tender Joint Count, Change from Baseline, Mean (SD)",[2]; [8],−3.0 (5.66)
same,"Tender Joint Count, Change from Baseline, Median",[2]; [8],−3.0
same,"Swollen Joint Count, Observed, Mean (SD)",[2]; [9],0.0 (0.00)
same,"Swollen Joint Count, Observed, Median",[2]; [9],0.0
same,"Tender Joint Count, Observed, Mean (SD)",[2]; [9],2.0 (2.83)
same,"Tender Joint Count, Observed, Median",[2]; [9],2.0
same,"Swollen Joint Count, Observed, Mean (SD)","[2]; Week 14, n=14",1.7 (3.73)
same,"Swollen Joint Count, Observed, Median","[2]; Week 14, n=14",0.0
same,"Tender Joint Count, Observed, Mean (SD)","[2]; Week 14, n=14",4.6 (6.16)
same,"Tender Joint Count, Observed, Median","[2]; Week 14, n=14",2.0
same,"Swollen Joint Count, Change from Baseline, Mean (SD)",[2]; [10],−4.3 (7.38)
same,"Swollen Joint Count, Change from Baseline, Median",[2]; [10],−2.0
same,"Tender Joint Count, Change from Baseline, Mean (SD)",[2]; [10],−7.0 (14.20)
same,"Tender Joint Count, Change from Baseline, Median",[2]; [10],0.0
same,"Swollen Joint Count, Change from Baseline, Mean (SD)",[2]; [11],−3.6 (7.04)
same,"Swollen Joint Count, Change from Baseline, Median",[2]; [11],−2.5
same,"Tender Joint Count, Change from Baseline, Mean (SD)",[2]; [11],−5.1 (8.12)
same,"Tender Joint Count, Change from Baseline, Median",[2]; [11],−5.0
same,"Swollen Joint Count, Observed, Mean (SD)","[2]; Week 24, n=11",0.5 (1.21)
same,"Swollen Joint Count, Observed, Median","[2]; Week 24, n=11",0.0
same,"Tender Joint Count, Observed, Mean (SD)","[2]; Week 24, n=11",2.6 (3.88)
same,"Tender Joint Count, Observed, Median","[2]; Week 24, n=11",0.0
same,"Swollen Joint Count, Change from Baseline, Mean (SD)",[2]; [12],−6.6 (9.03)
same,"Swollen Joint Count, Change from Baseline, Median",[2]; [12],−3.0
same,"Tender Joint Count, Change from Baseline, Mean (SD)",[2]; [12],−10.2 (14.27)
same,"Tender Joint Count, Change from Baseline, Median",[2]; [12],−4.0
same,"Swollen Joint Count, Change from Baseline, Mean (SD)",[2]; [13],−5.1 (6.66)
same,"Swollen Joint Count, Change from Baseline, Median",[2]; [13],−3.0
same,"Tender Joint Count, Change from Baseline, Mean (SD)",[2]; [13],−6.8 (8.16)
same,"Tender Joint Count, Change from Baseline, Median",[2]; [13],−4.0
same,"Swollen Joint Count, Observed, Mean (SD)","[2]; Week 36, n=9",0.1 (0.33)
same,"Swollen Joint Count, Observed, Median","[2]; Week 36, n=9",0.0
same,"Tender Joint Count, Observed, Mean (SD)","[2]; Week 36, n=9",2.1 (4.54)
same,"Tender Joint Count, Observed, Median","[2]; Week 36, n=9",0.0
same,"Swollen Joint Count, Change from Baseline, Mean (SD)",[2]; [14],−7.8 (10.81)
same,"Swollen Joint Count, Change from Baseline, Median",[2]; [14],−3.0
same,"Tender Joint Count, Change from Baseline, Mean (SD)",[2]; [14],−12.3 (14.56)
same,"Tender Joint Count, Change from Baseline, Median",[2]; [14],−7.0
same,"Swollen Joint Count, Change from Baseline, Mean (SD)",[2]; [15],−6.2 (8.15)
same,"Swollen Joint Count, Change from Baseline, Median",[2]; [15],−4.0
same,"Tender Joint Count, Change from Baseline, Mean (SD)",[2]; [15],−7.8 (8.94)
same,"Tender Joint Count, Change from Baseline, Median",[2]; [15],−4.0
same,"Swollen Joint Count, Change from Baseline, Mean (SD)",[2]; [16],−21.0 (9.64)
same,"Swollen Joint Count, Change from Baseline, Median",[2]; [16],−25.0
same,"Tender Joint Count, Change from Baseline, Mean (SD)",[2]; [16],−24.0 (21.38)
same,"Tender Joint Count, Change from Baseline, Median",[2]; [16],−17.0
same,"Swollen Joint Count, Change from Baseline, Mean (SD)",[2]; [17],−13.0 (13.00)
same,"Swollen Joint Count, Change from Baseline, Median",[2]; [17],−13.0
same,"Tender Joint Count, Change from Baseline, Mean (SD)",[2]; [17],−16.0 (17.52)
same,"Tender Joint Count, Change from Baseline, Median",[2]; [17],−15.0
same,"Swollen Joint Count, Observed, Mean (SD)","[2]; Week 52/ET, n=3",0.0 (0.00)
same,"Swollen Joint Count, Observed, Median","[2]; Week 52/ET, n=3",0.0
same,"Tender Joint Count, Observed, Mean (SD)","[2]; Week 52/ET, n=3",5.3 (3.21)
same,"Tender Joint Count, Observed, Median","[2]; Week 52/ET, n=3",4.0
same,"plasma urate concentration (pUAc) after dosing, mean±SD",[3],1.0±0.5 mg/dL
